Measured values from PMC12817928, “Demonstration of in vivo efficacy, cryo-EM-epitope identification, and breadth of two anti-alphavirus bispecific single domain antibodies” (Journal of Virology, 2025).

Assays:
Test in all cases: cryo-EM structure
Conditions in all cases: both partners purified
[1] = biological target: T1, VEEV E1 envelope glycoprotein (strain TC83), in the VLP (Venezuelan equine encephalitis virus, …)
T1 construct: also called E1 subunit
T1 chain 1: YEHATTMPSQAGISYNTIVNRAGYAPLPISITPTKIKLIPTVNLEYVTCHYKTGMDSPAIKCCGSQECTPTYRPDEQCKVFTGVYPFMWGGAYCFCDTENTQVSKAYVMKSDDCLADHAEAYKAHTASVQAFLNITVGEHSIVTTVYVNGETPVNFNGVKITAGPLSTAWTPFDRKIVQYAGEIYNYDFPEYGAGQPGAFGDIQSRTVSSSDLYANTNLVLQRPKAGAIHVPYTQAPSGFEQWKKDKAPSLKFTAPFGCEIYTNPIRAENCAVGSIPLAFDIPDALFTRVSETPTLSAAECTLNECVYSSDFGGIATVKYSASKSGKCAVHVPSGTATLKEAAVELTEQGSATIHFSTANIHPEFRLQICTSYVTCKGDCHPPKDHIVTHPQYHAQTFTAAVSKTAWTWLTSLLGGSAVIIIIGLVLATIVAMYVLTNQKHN
T1 chain 2: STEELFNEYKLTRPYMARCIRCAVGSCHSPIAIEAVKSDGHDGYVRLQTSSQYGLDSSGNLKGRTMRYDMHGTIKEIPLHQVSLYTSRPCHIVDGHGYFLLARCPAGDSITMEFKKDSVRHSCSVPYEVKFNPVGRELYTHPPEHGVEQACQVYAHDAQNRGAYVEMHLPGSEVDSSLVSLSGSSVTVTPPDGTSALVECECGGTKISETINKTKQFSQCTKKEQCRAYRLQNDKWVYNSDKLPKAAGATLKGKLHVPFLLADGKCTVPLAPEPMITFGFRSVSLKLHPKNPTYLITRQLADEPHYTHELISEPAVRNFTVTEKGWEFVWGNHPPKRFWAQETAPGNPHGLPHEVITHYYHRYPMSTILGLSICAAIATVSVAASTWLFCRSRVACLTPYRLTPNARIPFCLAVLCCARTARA

[2] = biological target: T2, VEEV virus-like particle (VLP), strain TC83 (subtype IAB) (Venezuelan equine encephalitis virus, …, strain)
T2 construct: also called VEEV VLP; VEEV IAB VLP
T2 chain 1: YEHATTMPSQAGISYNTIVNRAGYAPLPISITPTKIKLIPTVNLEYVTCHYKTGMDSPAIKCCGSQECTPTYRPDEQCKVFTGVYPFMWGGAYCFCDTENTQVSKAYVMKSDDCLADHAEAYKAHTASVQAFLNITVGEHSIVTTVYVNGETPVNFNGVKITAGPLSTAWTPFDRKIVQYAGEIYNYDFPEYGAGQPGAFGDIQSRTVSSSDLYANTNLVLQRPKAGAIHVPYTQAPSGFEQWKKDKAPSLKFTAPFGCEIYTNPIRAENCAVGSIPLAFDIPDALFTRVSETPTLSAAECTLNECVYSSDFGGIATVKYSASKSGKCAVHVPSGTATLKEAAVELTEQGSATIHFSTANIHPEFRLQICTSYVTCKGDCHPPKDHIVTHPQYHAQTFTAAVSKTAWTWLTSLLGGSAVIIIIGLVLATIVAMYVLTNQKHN
T2 chain 2: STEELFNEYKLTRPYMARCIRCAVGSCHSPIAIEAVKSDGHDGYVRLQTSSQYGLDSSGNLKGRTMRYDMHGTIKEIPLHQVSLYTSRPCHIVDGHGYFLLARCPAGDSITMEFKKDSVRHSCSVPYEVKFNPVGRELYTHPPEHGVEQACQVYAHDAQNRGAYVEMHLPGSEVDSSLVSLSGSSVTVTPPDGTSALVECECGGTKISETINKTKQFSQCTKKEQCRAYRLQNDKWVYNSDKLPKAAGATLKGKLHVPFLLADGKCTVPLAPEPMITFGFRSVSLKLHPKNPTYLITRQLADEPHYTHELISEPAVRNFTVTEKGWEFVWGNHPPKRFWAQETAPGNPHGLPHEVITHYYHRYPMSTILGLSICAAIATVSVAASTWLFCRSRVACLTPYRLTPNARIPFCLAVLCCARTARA

[3] = biological target: T3, VEEV E2 envelope glycoprotein (strain TC83), in the VLP (Venezuelan equine encephalitis virus, …, strain)
T3 construct: also called E2 subunit
T3 chain 1: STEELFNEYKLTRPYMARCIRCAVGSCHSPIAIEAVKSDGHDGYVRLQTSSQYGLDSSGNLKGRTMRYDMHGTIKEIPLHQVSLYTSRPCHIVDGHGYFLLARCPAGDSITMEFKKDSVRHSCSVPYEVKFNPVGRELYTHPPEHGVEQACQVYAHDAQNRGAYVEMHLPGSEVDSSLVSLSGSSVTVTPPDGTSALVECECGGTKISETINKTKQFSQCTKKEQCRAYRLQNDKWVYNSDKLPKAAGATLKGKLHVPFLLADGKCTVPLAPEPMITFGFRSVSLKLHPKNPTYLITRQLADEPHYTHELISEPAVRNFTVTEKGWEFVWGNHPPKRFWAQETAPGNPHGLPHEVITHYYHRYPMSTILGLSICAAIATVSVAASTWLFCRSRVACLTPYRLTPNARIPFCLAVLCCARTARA
T3 chain 2: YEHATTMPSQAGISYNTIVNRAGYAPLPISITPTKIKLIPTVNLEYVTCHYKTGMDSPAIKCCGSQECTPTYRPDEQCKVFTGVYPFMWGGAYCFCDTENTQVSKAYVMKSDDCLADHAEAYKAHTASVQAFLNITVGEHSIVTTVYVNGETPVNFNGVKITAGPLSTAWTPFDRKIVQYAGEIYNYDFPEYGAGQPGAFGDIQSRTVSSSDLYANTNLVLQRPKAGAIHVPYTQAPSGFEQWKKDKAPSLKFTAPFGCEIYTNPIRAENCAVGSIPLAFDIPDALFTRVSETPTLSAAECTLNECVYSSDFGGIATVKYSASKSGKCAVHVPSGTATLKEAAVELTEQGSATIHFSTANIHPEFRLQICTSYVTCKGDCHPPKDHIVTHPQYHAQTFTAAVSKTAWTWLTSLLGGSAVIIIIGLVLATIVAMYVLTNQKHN

Measured: binding result

B1: sdAb V2C3 (VHH)
VHH: DVQLQASGGGSVQAGGSLRLSCVASQNLFEYYTMGWYRQVPGSQRERVALINNGGSNVAGSVEGRFTISRDNAKNSIYLQMNNLKPEDSAVYYCRAFGPADYWGQGTQVTVSS
notes: source: ClearColi BL21(DE3), purified (Ni Sepharose, MEP HyperCel, SEC)
binds: [1] | [2] | [3]

B2: sdAb V3A8f (VHH)
VHH: DVQLQASGGGSVQAGGSLRLSCAASGHSFANYHVAWIRQTPGKEREFVGSASRRDDSTYYADFALGRFIISRDNDINTAYLQMNSLKPEDSAVYYCVAAVMAQTTQGWTTDYDLRGQGTQVTVSS
binds: [1] | [2] | [3]

B3: sdAb V2B3 (VHH)
VHH: EVQLQASGGGLVQAGGSLRLSCAASGSIVSINVMAWYRQSPGKERELVAKSSGPFTLYADSVKGRFTISNDAAKNTVDLQMNSLKPEDTAVYYCNAEGLRYPSGTYGPSAVWGQGTQVTVSS
notes: as for B1
binds: [1] | [2] | [3]
